According to PMC8217500:

Assays:
[1] = target: Fc-tagged SARS-CoV-2 receptor-binding domain (RBD), wild type (SARS-CoV-2) (UniProt P0DTC2); assay: BLI; Fc-tagged RBD (20 ug/ml) loaded on anti-hIgG Fc Capture (AHC) biosensors, Fab in solution at four to five concentrations; Octet Red96e, room temperature, 1x kinetics buffer (1x PBS pH 7.4, 0.01% w/v BSA, 0.002% v/v Tween 20); 1:1 binding model
[2] = target: Fc-tagged SARS-CoV-2 spike receptor-binding domain (RBD) (SARS-CoV-2) (UniProt P0DTC2); assay: BLI; Fc-tagged RBD (20 ug/ml) loaded on anti-hIgG Fc Capture (AHC) biosensors, Fab in solution; room temperature; 1x PBS pH 7.4, 0.01% BSA, 0.002% Tween 20; 1:1 binding model

Substance: COVD21-C8 F58Y Fab
- Kd [1]: > 1 µM

Substance: COVD21-C8 Fab, Y58 variant (heavy chain F58Y)
- Kd [2]: 2 µM
